Source: patent publication US20100286027A1, “ANTI-BACTERIAL COMPOSITIONS” (priority 2008, published 2010)
In brackets after ≈: the same amount, converted by molar mass.

Columns and labels:
E. coli NB27004 = test: MIC against aerobic gram negative bacteria; assay type: cell-based, Escherichia coli
[1] = test system: P. aeruginosa NB52020* (mexAB/oprM efflux pump mutant); test: MIC against aerobic gram negative bacteria, efflux pump mutant; assay type: cell-based, Pseudomonas aeruginosa
H. influenzae NB65027 [2] = test: microbe, parasite or virus in culture; settings: Haemophilus influenzae, NB65027, read-out: minimal inhibitory concentration (MIC)
[3] = test system: E. coli NB27005* (TolC efflux pump mutant); test: MIC against aerobic gram negative bacteria, efflux pump mutant; assay type: cell-based, Escherichia coli
[4] = test system: H. influenzae NB65027-CDS0021* (TolC efflux pump mutant); test: as above; assay type: cell-based, Haemophilus influenzae
P. aeruginosa NB52019 = test: MIC against aerobic gram negative bacteria; assay type: cell-based, Pseudomonas aeruginosa
[5] = test system: Streptococcus pneumoniae (49619); test: BacTiter-Glo bacterial ATP content viability assay; settings: gram +, +/− SD, n = 3, >100 = activity detected but <50% inhibition
Bacillus Subtilis (6633) = test: BacTiter-Glo bacterial ATP content viability assay; settings: Bacillus Subtilis (6633), gram +; +/− SD, n = 3; >100 = activity detected but <50% inhibition
[6] = test system: Staphylococcus aureus (29213); test: BacTiter-Glo bacterial ATP content viability assay; settings: Staphylococcus aureus (29213), gram +; +/− SD, n = 3; >100 = activity detected but <50% inhibition
E. coli = test: Bacterial growth inhibition (FIG. 15); assay type: cell-based, Escherichia coli; settings: FIG. 15 Panel B
[7] = test system: Stenotrophomonas maltophilia (17666); test: BacTiter-Glo bacterial ATP content viability assay; settings: gram −, +/− SD, n = 3, >100 = activity detected but <50% inhibition
[8] = test system: Pseudomonas aeruginosa (27853); test: BacTiter-Glo bacterial ATP content viability assay; settings: gram −, +/− SD, n = 3, >100 = activity detected but <50% inhibition
[9] = test system: lawn of the indicated bacteria; test: Agar diffusion assay; settings: FIG. 11 Panel D; 0.5 mg/ml in sterile PBS per well
Escherichia coli (25922) = test: BacTiter-Glo bacterial ATP content viability assay; settings: gram −, +/− SD, n = 3, >100 = activity detected but <50% inhibition
[10] = test system: Listeria monocytogenes (7644); test: BacTiter-Glo bacterial ATP content viability assay; settings: Listeria monocytogenes (7644), gram +; +/− SD, n = 3; >100 = activity detected but <50% inhibition
H. influenzae NB65027 [11] = settings: aerobic gram negative
Escherichia coli (8739) = test: BacTiter-Glo bacterial ATP content viability assay; settings: gram −, +/− SD, n = 3, >100 = activity detected but <50% inhibition
[12] = test system: Klebsiella pneumoniae (700603); test: BacTiter-Glo bacterial ATP content viability assay; settings: gram −, +/− SD, n = 3, >100 = activity detected but <50% inhibition
[13] = test system: Salmonella choleraesuis (13076); test: BacTiter-Glo bacterial ATP content viability assay; settings: gram −, +/− SD, n = 3, >100 = activity detected but <50% inhibition
[14] = test system: Enterococcus faecalis (29212); test: BacTiter-Glo bacterial ATP content viability assay; settings: Enterococcus faecalis (29212), gram +; +/− SD, n = 3; >100 = activity detected but <50% inhibition
L. monocytogenes = test: Bacterial growth inhibition (FIG. 15); assay type: cell-based, Listeria monocytogenes; settings: FIG. 15 Panel C
[15] = Escherichia coli, read-out: minimal inhibitory concentration (MIC)
[16] = Pseudomonas aeruginosa, read-out: minimal inhibitory concentration (MIC)

## CN(C)[C@@H]1C(O)=C(C(N)=O)C(=O)[C@@]2(O)C(O)=C3C(=O)c4c(O)cccc4[C@@](C)(O)[C@H]3C[C@@H]12 [Tetracycline, reference compound]
E. coli NB27004; [15]
  MIC: 4 mg/L (≈ 9 µM)
[1]; [16]
  MIC: 1 mg/L (≈ 2.25 µM)
H. influenzae NB65027 [2]
  MIC: 0.5 mg/L (≈ 1.13 µM)
[3]; [15]
  MIC: 0.5 mg/L (≈ 1.13 µM)
[4]; Haemophilus influenzae, read-out: minimal inhibitory concentration (MIC)
  MIC: 0.5 mg/L (≈ 1.13 µM)
P. aeruginosa NB52019; [16]
  MIC: 32 mg/L (≈ 72 µM)

B1: Nod1: purified recombinant LRR domain of Nod1; human NOD1-LRR is SEQ ID NO: 4 (protein, listed as Homo sapiens)
chain: NKDHFQFTNLFLCGLLSKAKQKLLRHLVPAAALRRKRKALWAHLFSSLRGYLKSLPRVQVESFNQVQAMPTFIWMLRCIYETQSQKVGQLAARGICANYLKLTYCNACSADCSALSFVLHHFPKRLALDLDNNNLNDYGVRELQPCFSRLTVLRLSVNQITDGGVKVLSEELTKYKIVTYLGLYNNQITDVGARYVTKILDECKGLTHLKLGKNKITSEGGKYLALAVKNSKSISEVGMWGNQVGDEGAKAFAEALRNHPSLTTLSLASNGISTEGGKSLARALQQNTSLEILWLTQNELNDEVAESLAEMLKVNQTLKHLWLIQNQITAKGTAQLADALQSNTGITEICLNGNLIKPEEAKVYEDEKRIICF
[5]
  antibacterial activity by bacterial ATP content (IC50), [LRR domain]: 13.5 +/− 4.9 microgram/ml
E. coli NB27004
  minimal inhibitory concentration (MIC): >128 microgram/ml
Bacillus Subtilis (6633)
  antibacterial activity by bacterial ATP content (IC50), [LRR domain]: 15.5 +/− 12.0 microgram/ml
[6]
  antibacterial activity by bacterial ATP content (IC50), [LRR domain]: 111.3 +/− 13.0 microgram/ml
E. coli
  E. coli growth: inhibited
[7]
  antibacterial activity by bacterial ATP content (IC50), [LRR domain]: >100 microgram/ml
[8]
  antibacterial activity by bacterial ATP content (IC50), [LRR domain]: >100 microgram/ml
[9]
  anti-bacterial activity by agar diffusion assay: Anti-bacterial activity
[1]; aerobic gram negative, P. aeruginosa NB52020*, mexAB/oprM efflux pump mutant strain
  minimal inhibitory concentration (MIC): >128 microgram/ml
Escherichia coli (25922)
  antibacterial activity by bacterial ATP content (IC50), [LRR domain]: >100 microgram/ml
[10]
  antibacterial activity by bacterial ATP content (IC50), [LRR domain]: 32.0 +/− 2.1 microgram/ml
H. influenzae NB65027 [11]
  minimal inhibitory concentration (MIC): >128 microgram/ml
[3]; aerobic gram negative, E. coli NB27005*, TolC efflux pump mutant strain
  minimal inhibitory concentration (MIC): 32 microgram/ml
[4]; aerobic gram negative, H. influenzae NB65027-CDS0021*, TolC efflux pump mutant strain
  minimal inhibitory concentration (MIC): 4 microgram/ml
Escherichia coli (8739)
  antibacterial activity by bacterial ATP content (IC50), [LRR domain]: 29.0 +/− 2.8 microgram/ml
[12]
  antibacterial activity by bacterial ATP content (IC50), [LRR domain]: 30.8 +/− 4.9 microgram/ml
[13]
  antibacterial activity by bacterial ATP content (IC50), [LRR domain]: >100 microgram/ml
[14]
  antibacterial activity by bacterial ATP content (IC50), [LRR domain]: >100 microgram/ml
L. monocytogenes
  L. monocytogenes growth: inhibited
P. aeruginosa NB52019
  minimal inhibitory concentration (MIC): >128 microgram/ml
